B1: Chromo domain-containing protein rhino (Drosophila melanogaster (Fruit fly)), Q7JXA8 (parent)
chain: MSRNHQRPNLGLVDAPPNDHVEEYVVEKILGKRFVNGRPQVLVKWSGFPNENNTWEPLENVGNCMKLVSDFESEVFRLHRKAAAKSVGKSKSSPSSSGPLITENGPSSSKKTQQHSKSVQAKNTAGMSKMNQKKGKNIKKTAGKIKDIENYPKTQMPSTSQVSTDSTEVFDGNPSATTTNMIKSPRIQSLFSDLNLIEPTKDKDVGDTSLKTPPKSRRLIEFPQREDAPLSSKHVSPMLIRKESQPLQSSCTDDSDLGESSSSMSLPTVSSTSSEKSIKVTKSEPKTLGQIKFSSRSSDGGHAASSLGAPKEGDIGLDLSGSDSMDSEVESMRRCPRRKRKKTYPDWKFPEMTKPFGVNRGLDLDKILHCYQMNDDLFMFVTWKGCSSIDAVHINDIKEAYPLQIIKYFESLRIIVPK

In this experiment the parent is B1. Particulars: with h31_human H3C1, P68431.
On to MSRNHQRPNLGLVDAPPNDHVEEYVVEKILGKRFVNGRPQVLVKASGFPNENNTWEPLENVGNCMKLVSDFESEVFRLHRKAAAKSVGKSKSSPSSSGPLITENGPSSSKKTQQHSKSVQAKNTAGMSKMNQKKGKNIKKTAGKIKDIENYPKTQMPSTSQVSTDSTEVFDGNPSATTTNMIKSPRIQSLFSDLNLIEPTKDKDVGDTSLKTPPKSRRLIEFPQREDAPLSSKHVSPMLIRKESQPLQSSCTDDSDLGESSSSMSLPTVSSTSSEKSIKVTKSEPKTLGQIKFSSRSSDGGHAASSLGAPKEGDIGLDLSGSDSMDSEVESMRRCPRRKRKKTYPDWKFPEMTKPFGVNRGLDLDKILHCYQMNDDLFMFVTWKGCSSIDAVHINDIKEAYPLQIIKYFESLRIIVPK [W45A], for which the “effect of a mutation on the interaction” value is listed as “disrupting interaction”.

Turning to MSRNHQRPNLGLVDAPPNDHVEEYVVEKILGKRFVNGRPQVLVKWSGAPNENNTWEPLENVGNCMKLVSDFESEVFRLHRKAAAKSVGKSKSSPSSSGPLITENGPSSSKKTQQHSKSVQAKNTAGMSKMNQKKGKNIKKTAGKIKDIENYPKTQMPSTSQVSTDSTEVFDGNPSATTTNMIKSPRIQSLFSDLNLIEPTKDKDVGDTSLKTPPKSRRLIEFPQREDAPLSSKHVSPMLIRKESQPLQSSCTDDSDLGESSSSMSLPTVSSTSSEKSIKVTKSEPKTLGQIKFSSRSSDGGHAASSLGAPKEGDIGLDLSGSDSMDSEVESMRRCPRRKRKKTYPDWKFPEMTKPFGVNRGLDLDKILHCYQMNDDLFMFVTWKGCSSIDAVHINDIKEAYPLQIIKYFESLRIIVPK [F48A], the “effect of a mutation on the interaction” value is recorded as “disrupting interaction”.

For the variant MSRNHQRPNLGLVDAPPNDHVEEYVVEKILGKRAVNGRPQVLVKWSGFPNENNTWEPLENVGNCMKLVSDFESEVARLHRKAAAKSVGKSKSSPSSSGPLITENGPSSSKKTQQHSKSVQAKNTAGMSKMNQKKGKNIKKTAGKIKDIENYPKTQMPSTSQVSTDSTEVFDGNPSATTTNMIKSPRIQSLFSDLNLIEPTKDKDVGDTSLKTPPKSRRLIEFPQREDAPLSSKHVSPMLIRKESQPLQSSCTDDSDLGESSSSMSLPTVSSTSSEKSIKVTKSEPKTLGQIKFSSRSSDGGHAASSLGAPKEGDIGLDLSGSDSMDSEVESMRRCPRRKRKKTYPDWKFPEMTKPFGVNRGLDLDKILHCYQMNDDLFMFVTWKGCSSIDAVHINDIKEAYPLQIIKYFESLRIIVPK [F34A;F76A], the “effect of a mutation on the interaction” value is listed as “decreasing interaction strength”.

The values are drawn from IntAct's records for PubMed 25613572.
